The chains are these.
T1: human IL-2 receptor (IL-2Rα/IL-2Rβ/γc) (human, UniProt P01589 22-272; P14784 27-551; P31785 23-369)
T1 sequence 1: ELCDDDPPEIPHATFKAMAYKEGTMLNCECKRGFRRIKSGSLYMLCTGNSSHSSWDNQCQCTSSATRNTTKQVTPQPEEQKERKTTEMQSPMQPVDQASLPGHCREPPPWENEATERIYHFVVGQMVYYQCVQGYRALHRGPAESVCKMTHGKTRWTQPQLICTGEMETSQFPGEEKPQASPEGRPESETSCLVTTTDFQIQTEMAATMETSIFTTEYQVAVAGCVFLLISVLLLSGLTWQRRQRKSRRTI
T1 sequence 2: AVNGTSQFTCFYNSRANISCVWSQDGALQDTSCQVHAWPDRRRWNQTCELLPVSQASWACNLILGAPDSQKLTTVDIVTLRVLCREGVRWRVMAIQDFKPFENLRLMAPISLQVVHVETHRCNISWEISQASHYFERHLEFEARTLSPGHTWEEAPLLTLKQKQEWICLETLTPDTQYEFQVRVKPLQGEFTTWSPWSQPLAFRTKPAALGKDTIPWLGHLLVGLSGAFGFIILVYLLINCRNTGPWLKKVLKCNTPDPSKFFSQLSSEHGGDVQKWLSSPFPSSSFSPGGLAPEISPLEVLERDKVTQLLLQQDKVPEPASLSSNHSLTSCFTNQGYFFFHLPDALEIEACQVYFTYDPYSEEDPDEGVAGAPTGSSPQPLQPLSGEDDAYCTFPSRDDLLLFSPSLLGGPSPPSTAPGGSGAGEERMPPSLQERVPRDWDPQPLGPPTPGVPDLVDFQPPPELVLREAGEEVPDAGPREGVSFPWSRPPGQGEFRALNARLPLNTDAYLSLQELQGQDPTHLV
T1 sequence 3: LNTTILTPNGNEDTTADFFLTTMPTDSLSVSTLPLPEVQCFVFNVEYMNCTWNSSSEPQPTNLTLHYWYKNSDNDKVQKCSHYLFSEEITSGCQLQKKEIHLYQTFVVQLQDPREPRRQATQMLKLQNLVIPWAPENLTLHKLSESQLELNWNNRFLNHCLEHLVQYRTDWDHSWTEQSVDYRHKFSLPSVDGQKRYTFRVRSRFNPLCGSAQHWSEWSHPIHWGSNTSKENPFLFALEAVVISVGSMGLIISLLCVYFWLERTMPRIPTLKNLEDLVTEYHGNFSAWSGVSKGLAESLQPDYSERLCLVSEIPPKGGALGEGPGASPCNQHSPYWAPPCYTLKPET

B1: DC00085 (other)
chain 1: EVQLVESGGGLVQAGGSLRLSCAASGGSIYTYNMGWFRQAPGKEREFVAGTLWSGGDSVYADFAKGRFTLSRENAKNTLYLQMNSLKPEDTATYYCAIDPLSLTSDWRVDELSSWGKGTLVTVSSDKTHTCPPCPAPEAAGGPSVFLFPPKPKDTLMISRTPEVTCVVVDVSHEDPEVKFNWYVDGVEVHNAKTKPREEQYNSTYRVVSVLTVLHQDWLNGKEYKCKVSNKALGAPIEKTISKAKGQPREPQVYTLPPSRDELTKNQVSLTCLVKGFYPSDIAVEWESNGQPENNYKTTPPVLDSDGSFLLYSKLTVDKSRWQQGNVFSCSVMHEALHNHYTQKSLSLSPGK
chain 2: EVQLVESGGGLVQTGGSLRLSCAASGGTFSRDAMAWFRQVPGKEREFVALISWSGATTNYADSVKGRFAISRDNGKNTVYLQMNRLKPADTAIYYCAADRRPMGSRSYFEPTEYDDWGQGTQVTVSSGGGGSGGGGSGGGGSQVQLVESGGGLVQPGGSLRLSCATSGFTFRNNFMSWVRQAPGKGLEWVSTISYGGESTTYAESVKGRFTISRDNAKNTLYLQMNNLKPEDTAVYYCAKATSYDSIRSGSRGQGTQVTVSSGGGGSGGGGSGGGGSQVQLVESGGGLVQAGGSLTLSCAAPGRTFGTDVVGWFRQAPGKEREFVASISRSGDGIYYDDSVKGRFTISRNNAWNTVNLQMNSLKVEDTAVYYCAAGDGWSTYDYWGQGTQVTVSSGGGGSGGGGSGGGGSDKTHTCPPCPAPEAAGGPSVFLFPPKPKDTLMISRTPEVTCVVVDVSHEDPEVKFNWYVDGVEVHNAKTKPREEQYNSTYRVVSVLTVLHQDWLNGKEYKCKVSNKALGAPIEKTISKAKGQPREPQVYTLPPSRDELTKNQVSLTCLVKGFYPSDIAVEWESNGQPENNYKTTPPVLDSDGSFFLYSRLTVDKSRWQQGNVFSCSVMHEALHNHYTQKSLSLSPGK
B2: DC00082 (other)
chain 1: QVQLVESGGGLVQAGGSLRLSCAASGGTFRTRNMGWFRRAPGKEREFVAAVSWNVDNKLYADSVKGRFTISRDNGRNMVYLQMNSLKPEDTAVYYCAADNIPLSSDMRPTATEYDYWGQGTQVTVSSDKTHTCPPCPAPEAAGGPSVFLFPPKPKDTLMISRTPEVTCVVVDVSHEDPEVKFNWYVDGVEVHNAKTKPREEQYNSTYRVVSVLTVLHQDWLNGKEYKCKVSNKALGAPIEKTISKAKGQPREPQVYTLPPSRDELTKNQVSLTCLVKGFYPSDIAVEWESNGQPENNYKTTPPVLDSDGSFLLYSKLTVDKSRWQQGNVFSCSVMHEALHNHYTQKSLSLSPGK
chain 2: QVQLVESGGGLVQPGGSLRLSCATSGFTFRNNFMSWVRQAPGKGLEWVSTISYGGESTTYAESVKGRFTISRDNAKNTLYLQMNNLKPEDTAVYYCAKATSYDSIRSGSRGQGTQVTVSSGGGGSGGGGSGGGGSEVQLVESGGGLVQTGGSLRLSCAASGGTFSRDAMAWFRQVPGKEREFVALISWSGATTNYADSVKGRFAISRDNGKNTVYLQMNRLKPADTAIYYCAADRRPMGSRSYFEPTEYDDWGQGTQVTVSSGGGGSGGGGSGGGGSQVQLVESGGGLVQAGGSLTLSCAAPGRTFGTDVVGWFRQAPGKEREFVASISRSGDGIYYDDSVKGRFTISRNNAWNTVNLQMNSLKVEDTAVYYCAAGDGWSTYDYWGQGTQVTVSSGGGGSGGGGSGGGGSDKTHTCPPCPAPEAAGGPSVFLFPPKPKDTLMISRTPEVTCVVVDVSHEDPEVKFNWYVDGVEVHNAKTKPREEQYNSTYRVVSVLTVLHQDWLNGKEYKCKVSNKALGAPIEKTISKAKGQPREPQVYTLPPSRDELTKNQVSLTCLVKGFYPSDIAVEWESNGQPENNYKTTPPVLDSDGSFFLYSRLTVDKSRWQQGNVFSCSVMHEALHNHYTQKSLSLSPGK
B3: DC00083 (other)
chain 1: QVQLVESGGGLVQAGGSLRLSCAASGGTFRTRNMGWFRRAPGKEREFVAAVSWNVDNKLYADSVKGRFTISRDNGRNMVYLQMNSLKPEDTAVYYCAADNIPLSSDMRPTATEYDYWGQGTQVTVSSDKTHTCPPCPAPEAAGGPSVFLFPPKPKDTLMISRTPEVTCVVVDVSHEDPEVKFNWYVDGVEVHNAKTKPREEQYNSTYRVVSVLTVLHQDWLNGKEYKCKVSNKALGAPIEKTISKAKGQPREPQVYTLPPSRDELTKNQVSLTCLVKGFYPSDIAVEWESNGQPENNYKTTPPVLDSDGSFLLYSKLTVDKSRWQQGNVFSCSVMHEALHNHYTQKSLSLSPGK
chain 2: QVQLVESGGGLVQAGGSLTLSCAAPGRTFGTDVVGWFRQAPGKEREFVASISRSGDGIYYDDSVKGRFTISRNNAWNTVNLQMNSLKVEDTAVYYCAAGDGWSTYDYWGQGTQVTVSSGGGGSGGGGSGGGGSEVQLVESGGGLVQTGGSLRLSCAASGGTFSRDAMAWFRQVPGKEREFVALISWSGATTNYADSVKGRFAISRDNGKNTVYLQMNRLKPADTAIYYCAADRRPMGSRSYFEPTEYDDWGQGTQVTVSSGGGGSGGGGSGGGGSQVQLVESGGGLVQPGGSLRLSCATSGFTFRNNFMSWVRQAPGKGLEWVSTISYGGESTTYAESVKGRFTISRDNAKNTLYLQMNNLKPEDTAVYYCAKATSYDSIRSGSRGQGTQVTVSSDKTHTCPPCPAPEAAGGPSVFLFPPKPKDTLMISRTPEVTCVVVDVSHEDPEVKFNWYVDGVEVHNAKTKPREEQYNSTYRVVSVLTVLHQDWLNGKEYKCKVSNKALGAPIEKTISKAKGQPREPQVYTLPPSRDELTKNQVSLTCLVKGFYPSDIAVEWESNGQPENNYKTTPPVLDSDGSFFLYSRLTVDKSRWQQGNVFSCSVMHEALHNHYTQKSLSLSPGK

Bounds are passed on as bounds.

The target in this test is T1, human IL-2 receptor (IL-2Rα/IL-2Rβ/γc). Nature of the test: cell-based or functional assay.
As for B1, the “EC50 (nM) pSTAT5, NK, human PBMCs” value turned out to be 0.663 nM; the “EC50 (nM) pSTAT5, Treg, human PBMCs” value came out at 0.0313 nM; the “Fold Max signal (% pSTAT5+) Treg/NK” value is 4 fold; the “Max signal (% pSTAT5+), NK” value was 2.19 % pSTAT5+. Further, the “Max signal (% pSTAT5+), Treg” value was determined as 8.49 % pSTAT5+ and the “fold EC50 NK/Treg” value stood at 21 fold.

Take B2: the “EC50 (nM) pSTAT5, NK, human PBMCs” value worked out at 0.0227 nM; the “EC50 (nM) pSTAT5, Treg, human PBMCs” value was 0.848 pM; the “Fold Max signal (% pSTAT5+) Treg/NK” value came out at 2 fold; the “Max signal (% pSTAT5+), NK” value stood at 2.11 % pSTAT5+. In addition, the “Max signal (% pSTAT5+), Treg” value was determined as 4.57 % pSTAT5+ and the “fold EC50 NK/Treg” value was 27 fold.

Take B3: the “EC50 (nM) pSTAT5, NK, human PBMCs” value was 0.496 nM; the “EC50 (nM) pSTAT5, Treg, human PBMCs” value is < 0.1 pM; the “Fold Max signal (% pSTAT5+) Treg/NK” value turned out to be 5 fold; the “Max signal (% pSTAT5+), NK” value was determined as 13 % pSTAT5+. The “Max signal (% pSTAT5+), Treg” value was found to be 64.1 % pSTAT5+ and the “fold EC50 NK/Treg” value is > 4960 fold.

These data come from patent publication US20240409645A1 (DUALYX, published 2024).
